For the experiment, the target named is T1, 35S-labelled luciferase (UniProt P08659 1-550 = luciferase, 35S label (in-vitro-translated)).
T1 construct: Negative control of the pull-down; also called luciferase (about 61 kDa)
Put plainly: GST pull-down, 35S-labelled luciferase.

T1 sequence (P08659 whole entry): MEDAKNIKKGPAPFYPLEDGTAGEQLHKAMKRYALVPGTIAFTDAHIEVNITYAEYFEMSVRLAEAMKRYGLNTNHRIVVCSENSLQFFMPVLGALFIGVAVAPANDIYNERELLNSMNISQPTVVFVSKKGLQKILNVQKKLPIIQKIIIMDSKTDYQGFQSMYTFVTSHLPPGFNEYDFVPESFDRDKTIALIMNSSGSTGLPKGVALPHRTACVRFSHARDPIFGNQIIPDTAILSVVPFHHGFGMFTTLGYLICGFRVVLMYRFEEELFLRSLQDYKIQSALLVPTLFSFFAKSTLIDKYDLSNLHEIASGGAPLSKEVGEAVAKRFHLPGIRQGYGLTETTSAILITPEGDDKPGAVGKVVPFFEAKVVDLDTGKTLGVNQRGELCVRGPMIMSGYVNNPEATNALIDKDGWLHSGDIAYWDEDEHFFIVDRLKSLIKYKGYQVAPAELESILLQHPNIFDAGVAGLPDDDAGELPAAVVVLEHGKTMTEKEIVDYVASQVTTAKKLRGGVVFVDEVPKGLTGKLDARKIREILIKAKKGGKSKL

B1: GST-TWEAK protein (ligand, UniProt O43508 136-249, looked up)
chain: ARINSSSPLRYNRQIGEFIVTRAGLYYLYCQVHFDEGKAVYLKLDLLVDGVLALRCLEEFSATAASSLGPQLRLCQVSGLLALRPGSSLRIRTLPWAHLKAAPFLTYFGLFQVH
notes: also called GST-TWEAK fusion protein; not shown: glutathione S-transferase (GST) tag
Take B1: the binding result is “no binding”.

Values taken from patent US20080199473A1 (CLEVELAND CLINIC FOUNDATION, published 2008).
